# Measured values from patent US20240190983A1 (JULIUS MAXIMILIANS UNIVERSIT T W RZBURG, published 2024).
# T1: Human TNFR2 (human, UniProt P20333 23-461)
# T1 construct: On cells: HeLa-TNFR2, HT1080-Bcl2-TNFR2, transiently transfected HEK293; endogenous on Kym-1 cells; also called huTNFR2; TNFRSF1B
# T1 sequence: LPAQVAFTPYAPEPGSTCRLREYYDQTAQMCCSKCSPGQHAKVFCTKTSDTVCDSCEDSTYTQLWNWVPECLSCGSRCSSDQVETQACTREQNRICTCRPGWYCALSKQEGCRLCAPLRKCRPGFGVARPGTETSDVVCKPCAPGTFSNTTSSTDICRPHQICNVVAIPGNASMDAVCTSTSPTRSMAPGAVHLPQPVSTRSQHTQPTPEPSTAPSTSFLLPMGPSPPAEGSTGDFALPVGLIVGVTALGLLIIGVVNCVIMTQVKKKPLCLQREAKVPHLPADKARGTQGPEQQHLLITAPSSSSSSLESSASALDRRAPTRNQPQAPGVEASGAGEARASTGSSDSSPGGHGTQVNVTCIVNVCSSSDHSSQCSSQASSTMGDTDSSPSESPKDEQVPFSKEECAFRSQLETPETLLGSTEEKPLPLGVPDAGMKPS
# B1: (68/69)-IgG1(N297A)-LC:GpL (antibody)
# light: EVKLVPRQLDYKDDDDKELDVQMTQSPSSLSASVGDRVTITCKASQDINKFIAWYQQKPGKAPKLLIHYTSTLQPGIPSRFSGSGSGRDYTFTISSLQPEDIATYYCLQYGNLWTFGGGTKVEIKGSEIKRTVAAPSVFIFPPSDEQLKSGTASVVCLLNNFYPREAKVQWKVDNALQSGNSQESVTEQDSKDSTYSLSSTLTLSKADYEKHKVYACEVTHQGLSSPVTKSFNRGECLEKPTENNEDFNIVAVASNFATTDLDADRGKLPGKKLPLEVLKEMEANARKAGCTRGCLICLSHIKCTPKMKKFIPGRCHTYEGDKESAQGGIGEAIVDIPEIPGFKDLEPMEQFIAQVDLCVDCTTGCLKGLANVQCSDLLKKWLPQRCATFASKIQGQVDKIKGAGGD
# heavy: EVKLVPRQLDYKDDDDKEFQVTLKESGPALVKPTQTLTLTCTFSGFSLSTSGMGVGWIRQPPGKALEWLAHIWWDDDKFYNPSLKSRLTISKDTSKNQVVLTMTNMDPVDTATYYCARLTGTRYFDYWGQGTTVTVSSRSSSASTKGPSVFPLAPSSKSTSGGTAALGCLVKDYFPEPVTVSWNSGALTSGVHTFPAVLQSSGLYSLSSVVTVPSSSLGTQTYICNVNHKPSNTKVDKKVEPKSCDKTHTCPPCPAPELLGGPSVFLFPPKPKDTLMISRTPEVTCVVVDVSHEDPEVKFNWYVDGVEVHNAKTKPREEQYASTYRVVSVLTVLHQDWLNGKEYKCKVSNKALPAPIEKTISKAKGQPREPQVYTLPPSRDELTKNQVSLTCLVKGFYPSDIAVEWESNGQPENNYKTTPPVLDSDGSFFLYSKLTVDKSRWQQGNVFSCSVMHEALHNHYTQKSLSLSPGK
# notes: Gaussia princeps luciferase (GpL) fused to the light chain; copies: 2 + 2
# B2: C31-2-IgG1(N297A)-LC:GpL (antibody)
# light: EVKLVPRQLDYKDDDDKELQAVVTQESALTTSPGETVTLTCRSSTGAVTTSNYANWVQEKPDHLFTGLIGGTNNRAPGVPARFSGSVIGDKAALTITGAQTEDEAIYFCALWYSNHWVFGGGTKLTVLGGSEIKRTVAAPSVFIFPPSDEQLKSGTASVVCLLNNFYPREAKVQWKVDNALQSGNSQESVTEQDSKDSTYSLSSTLTLSKADYEKHKVYACEVTHQGLSSPVTKSFNRGECLEKPTENNEDFNIVAVASNFATTDLDADRGKLPGKKLPLEVLKEMEANARKAGCTRGCLICLSHIKCTPKMKKFIPGRCHTYEGDKESAQGGIGEAIVDIPEIPGFKDLEPMEQFIAQVDLCVDCTTGCLKGLANVQCSDLLKKWLPQRCATFASKIQGQVDKIKGAGGD
# heavy: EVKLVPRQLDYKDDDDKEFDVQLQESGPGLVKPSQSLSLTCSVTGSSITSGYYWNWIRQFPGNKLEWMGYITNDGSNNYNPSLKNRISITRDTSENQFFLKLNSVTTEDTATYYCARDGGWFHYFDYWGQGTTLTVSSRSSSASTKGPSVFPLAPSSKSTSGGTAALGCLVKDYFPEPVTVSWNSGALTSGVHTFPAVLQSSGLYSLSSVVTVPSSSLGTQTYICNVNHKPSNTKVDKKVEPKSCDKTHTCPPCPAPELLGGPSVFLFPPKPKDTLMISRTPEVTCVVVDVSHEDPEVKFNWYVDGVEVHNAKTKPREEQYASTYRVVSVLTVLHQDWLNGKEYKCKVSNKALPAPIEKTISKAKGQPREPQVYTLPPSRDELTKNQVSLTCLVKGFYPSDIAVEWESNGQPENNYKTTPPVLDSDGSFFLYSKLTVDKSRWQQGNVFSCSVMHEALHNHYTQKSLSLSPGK
# notes: copies: 2 + 2
# B3: C29-IgG1(N297A)-LC:GpL (antibody)
# light: EVKLVPRQLDYKDDDDKELDVVMTQTPLSLPVSLGDQASISCRASQSLVHSNGNTYLQWYLQKPGQSPKLLIYKVSNRFSGVPDRFSGSGSGTDFTLKISRVEAEDLGVFFCSQSTHVPFTFGSGTKLEIKGSEIKRTVAAPSVFIFPPSDEQLKSGTASVVCLLNNFYPREAKVQWKVDNALQSGNSQESVTEQDSKDSTYSLSSTLTLSKADYEKHKVYACEVTHQGLSSPVTKSFNRGECLEKPTENNEDFNIVAVASNFATTDLDADRGKLPGKKLPLEVLKEMEANARKAGCTRGCLICLSHIKCTPKMKKFIPGRCHTYEGDKESAQGGIGEAIVDIPEIPGFKDLEPMEQFIAQVDLCVDCTTGCLKGLANVQCSDLLKKWLPQRCATFASKIQGQVDKIKGAGGD
# heavy: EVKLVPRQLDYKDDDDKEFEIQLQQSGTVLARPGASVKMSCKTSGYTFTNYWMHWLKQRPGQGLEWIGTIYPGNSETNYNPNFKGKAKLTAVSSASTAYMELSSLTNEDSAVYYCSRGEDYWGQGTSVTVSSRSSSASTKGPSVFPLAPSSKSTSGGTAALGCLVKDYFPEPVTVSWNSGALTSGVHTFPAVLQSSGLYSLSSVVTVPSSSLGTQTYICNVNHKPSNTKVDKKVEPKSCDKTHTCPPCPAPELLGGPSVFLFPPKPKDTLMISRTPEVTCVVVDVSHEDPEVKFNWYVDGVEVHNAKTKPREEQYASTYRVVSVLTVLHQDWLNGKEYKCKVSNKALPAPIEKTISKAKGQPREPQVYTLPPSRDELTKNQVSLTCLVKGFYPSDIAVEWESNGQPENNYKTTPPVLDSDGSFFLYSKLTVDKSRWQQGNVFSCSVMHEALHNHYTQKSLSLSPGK
# notes: copies: 2 + 2
# B4: C4-Fab1 (Fab)
# light: MNFGFSLIFLVLVLKGVQCEVKLVPRQLDYKDDDDKELDIVMTQSHKFMSTSVGDRVSITCKASQDVDTAVAWYQQKPGQSPKLLIYWASTRHTGVPDRFTGSGSGTDYTLTISSVQAEDLARYYCQQYYSVPPTFGGGTKLGSEIKRTVAAPSVFIFPPSDEQLKSGTASVVCLLNNFYPREAKVQWKVDNALQSGNSQESVTEQDSKDSTYSLSSTLTLSKADYEKHKVYACEVTHQGLSSPVTKSFNRGEC
# heavy: MNFGFSLIFLVLVLKGVQCEVKLVPRQLDYKDDDDKELQVQLLQSGPELVKPGASVKLSCKASGYSFTSYDINWVKQRPGQGLEWVGWIYPRDGDTKYNEKFKGKAILTVDTSSNTAYMNLHSLTSEDSAVYFCARLTGPYWYFDVWGTGTTVTVSSGSSSASTKGPSVFPLAPSSKSTSGGTAALGCLVKDYFPEPVTVSWNSGALTSGVHTFPAVLQSSGLYSLSSVVTVPSSSLGTQTYICNVNHKPSNTKVDKKVEPKSCDKTHT
# B5: C4-Fab1-LC:scFvC4 (antibody)
# light: MNFGFSLIFLVLVLKGVQCEVKLVPRQLDYKDDDDKELDIVMTQSHKFMSTSVGDRVSITCKASQDVDTAVAWYQQKPGQSPKLLIYWASTRHTGVPDRFTGSGSGTDYTLTISSVQAEDLARYYCQQYYSVPPTFGGGTKLGSEIKRTVAAPSVFIFPPSDEQLKSGTASVVCLLNNFYPREAKVQWKVDNALQSGNSQESVTEQDSKDSTYSLSSTLTLSKADYEKHKVYACEVTHQGLSSPVTKSFNRGECLEQVQLLQSGPELVKPGASVKLSCKASGYSFTSYDINWVKQRPGQGLEWVGWIYPRDGDTKYNEKFKGKAILTVDTSSNTAYMNLHSLTSEDSAVYFCARLTGPYWYFDVWGTGTTVTVSSRSSTKGPKLEEGEFSEAQLDIVMTQSHKFMSTSVGDRVSITCKASQDVDTAVAWYQQKPGQSPKLLIYWASTRHTGVPDRFTGSGSGTDYTLTISSVQAEDLARYYCQQYYSVPPTFGGGTKLEIK
# heavy: B4 heavy
# B6: C4-Fab2 (antibody)
# light: B4 light
# heavy: MNFGFSLIFLVLVLKGVQCEVKLVPRQLQVQLLQSGPELVKPGASVKLSCKASGYSFTSYDINWVKQRPGQGLEWVGWIYPRDGDTKYNEKFKGKAILTVDTSSNTAYMNLHSLTSEDSAVYFCARLTGPYWYFDVWGTGTTVTVSSGSSSASTKGPSVFPLAPSSKSTSGGTAALGCLVKDYFPEPVTVSWNSGALTSGVHTFPAVLQSSGLYSLSSVVTVPSSSLGTQTYICNVNHKPSNTKVDKKVEPKSCDKTHTCPPCPA
# B7: C4-IgG1(N297A) (antibody)
# light: B4 light
# heavy: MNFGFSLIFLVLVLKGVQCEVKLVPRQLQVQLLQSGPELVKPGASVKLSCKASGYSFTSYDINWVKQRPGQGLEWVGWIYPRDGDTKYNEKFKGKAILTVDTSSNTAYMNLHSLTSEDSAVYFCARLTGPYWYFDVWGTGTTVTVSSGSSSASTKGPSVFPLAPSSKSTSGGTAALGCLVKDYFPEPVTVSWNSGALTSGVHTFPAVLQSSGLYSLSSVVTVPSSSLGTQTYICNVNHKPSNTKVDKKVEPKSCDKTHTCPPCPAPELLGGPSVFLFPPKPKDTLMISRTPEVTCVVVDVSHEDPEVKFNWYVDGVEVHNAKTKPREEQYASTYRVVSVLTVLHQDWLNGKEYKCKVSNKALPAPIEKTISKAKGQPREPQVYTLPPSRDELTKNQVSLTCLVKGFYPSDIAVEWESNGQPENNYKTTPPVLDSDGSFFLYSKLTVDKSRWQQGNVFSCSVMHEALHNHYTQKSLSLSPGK
# B8: C4-IgG1(N297A)-HC:TNC (antibody)
# light: B4 light
# heavy: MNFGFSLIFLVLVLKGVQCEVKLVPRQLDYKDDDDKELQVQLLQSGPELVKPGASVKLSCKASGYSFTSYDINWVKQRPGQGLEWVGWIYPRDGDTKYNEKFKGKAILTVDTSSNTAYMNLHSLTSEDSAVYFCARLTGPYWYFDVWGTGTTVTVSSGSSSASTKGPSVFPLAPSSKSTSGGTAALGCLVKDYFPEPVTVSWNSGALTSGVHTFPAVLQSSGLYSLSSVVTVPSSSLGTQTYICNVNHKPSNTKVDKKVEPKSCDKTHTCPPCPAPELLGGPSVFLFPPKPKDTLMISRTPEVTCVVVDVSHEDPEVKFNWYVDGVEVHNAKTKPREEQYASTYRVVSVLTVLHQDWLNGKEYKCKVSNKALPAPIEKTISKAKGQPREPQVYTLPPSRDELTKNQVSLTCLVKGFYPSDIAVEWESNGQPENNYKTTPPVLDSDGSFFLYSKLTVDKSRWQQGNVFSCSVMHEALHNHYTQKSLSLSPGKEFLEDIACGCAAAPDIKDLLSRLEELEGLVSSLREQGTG
# B9: C4-Fab2-LC:scFvC4 (antibody)
# light: B5 light
# heavy: B6 heavy
# B10: C4(scFv)-IgG1(N297A) (antibody)
# light: MNFGFSLIFLVLVLKGVQCEVKLVPRQLDYKDDDDKEFQVQLLQSGPELVKPGASVKLSCKASGYSFTSYDINWVKQRPGQGLEWVGWIYPRDGDTKYNEKFKGKAILTVDTSSNTAYMNLHSLTSEDSAVYFCARLTGPYWYFDVWGTGTTVTVSSRSSTKGPKLEEGEFSEAQLDIVMTQSHKFMSTSVGDRVSITCKASQDVDTAVAWYQQKPGQSPKLLIYWASTRHTGVPDRFTGSGSGTDYTLTISSVQAEDLARYYCQQYYSVPPTFGGGTKLEIKGSEIKRTVAAPSVFIFPPSDEQLKSGTASVVCLLNNFYPREAKVQWKVDNALQSGNSQESVTEQDSKDSTYSLSSTLTLSKADYEKHKVYACEVTHQGLSSPVTKSFNRGEC
# heavy: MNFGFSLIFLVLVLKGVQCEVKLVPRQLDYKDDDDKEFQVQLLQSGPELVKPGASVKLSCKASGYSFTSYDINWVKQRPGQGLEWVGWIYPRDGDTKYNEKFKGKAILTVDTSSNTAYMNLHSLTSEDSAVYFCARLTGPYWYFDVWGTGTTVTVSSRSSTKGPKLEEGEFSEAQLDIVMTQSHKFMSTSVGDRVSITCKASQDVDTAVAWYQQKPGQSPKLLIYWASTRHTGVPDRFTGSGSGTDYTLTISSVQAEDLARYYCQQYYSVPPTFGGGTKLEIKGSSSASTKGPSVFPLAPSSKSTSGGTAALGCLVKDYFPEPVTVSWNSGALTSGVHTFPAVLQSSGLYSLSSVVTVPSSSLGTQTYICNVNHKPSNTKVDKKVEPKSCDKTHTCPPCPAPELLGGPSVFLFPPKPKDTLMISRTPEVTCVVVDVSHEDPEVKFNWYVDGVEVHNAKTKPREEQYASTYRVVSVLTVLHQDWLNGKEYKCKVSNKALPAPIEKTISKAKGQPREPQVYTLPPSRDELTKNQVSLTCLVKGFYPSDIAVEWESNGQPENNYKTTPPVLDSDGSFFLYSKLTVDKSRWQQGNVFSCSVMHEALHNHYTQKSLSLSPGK
# B11: C4(scFv)-IgG1(N297A)-HC:TNC (antibody)
# light: B10 light
# heavy: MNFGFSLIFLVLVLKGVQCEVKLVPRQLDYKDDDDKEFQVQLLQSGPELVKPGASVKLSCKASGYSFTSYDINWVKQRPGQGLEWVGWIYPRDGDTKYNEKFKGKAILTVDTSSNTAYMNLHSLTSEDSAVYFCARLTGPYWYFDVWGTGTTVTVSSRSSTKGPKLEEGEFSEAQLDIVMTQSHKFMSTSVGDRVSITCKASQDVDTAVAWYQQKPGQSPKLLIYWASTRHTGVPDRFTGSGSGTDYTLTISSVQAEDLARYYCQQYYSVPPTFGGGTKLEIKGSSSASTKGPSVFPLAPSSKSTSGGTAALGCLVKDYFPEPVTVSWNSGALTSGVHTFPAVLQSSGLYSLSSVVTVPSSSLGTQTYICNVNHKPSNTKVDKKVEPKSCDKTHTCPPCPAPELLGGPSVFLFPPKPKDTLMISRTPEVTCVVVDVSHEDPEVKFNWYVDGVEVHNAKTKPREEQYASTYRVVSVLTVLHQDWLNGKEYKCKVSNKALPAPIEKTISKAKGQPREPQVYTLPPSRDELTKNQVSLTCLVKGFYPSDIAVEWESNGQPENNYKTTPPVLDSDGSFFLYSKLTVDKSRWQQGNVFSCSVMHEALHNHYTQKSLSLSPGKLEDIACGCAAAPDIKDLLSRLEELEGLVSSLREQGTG
# Target: T1, Human TNFR2
# Test: equilibrium binding of the GpL fusion protein to HeLa-TNFR2 cells, 37 °C; unspecific binding on HeLa cells subtracted; cell-bound luciferase
# Description: FIG. 11—Binding properties of TNFR2-specific antibodies. (A) Equilibrium binding of the indicated anti-TNFR2 antibody GpL fusion proteins to cell expressed human TNFR2 at 37° C. (B) HeLa-TNFR2 cells were pretreated with the indicated amounts of anti-TNFR2 antibodies or remained untreated. […] Binding of the various constructs to untransfected HeLa cells was analyzed to obtain unspecific binding values.
# Affinity of TNFR2-specific antibodies and antibody variants were also evaluated with HeLa cells and HeLa cells stably expressing human TNFR2. HeLa and HeLa-TNFR2 cells were seeded out in 24-well plates. Next day, the cells were challenged with the indicated concentrations of GpL-labelled TNFR2 antibodies for 1 hour at 37° C. To eliminate the unbound antibodies, the cells were washed 10 times with ice-cold PBS. The cells were then scratched and collected in 50 μl of medium (RPMI, 0.5% FCS) and transferred to black 96-well plates for measurement as mentioned above. The specific binding of different TNFR2-specific antibodies/antibody variants was calculated by subtracting the unspecific binding (values obtained from HeLa cells) from total binding (obtained from HeLa-TNFR2). The resulting values were fitted using the non-linear regression analysis option of GraphPad Prism 5.
Bmax,Kd,Binder
1130 kRLU,0.044 µg/mL,B1
890 kRLU,2.19 µg/mL,B2
250 kRLU,0.8 µg/mL,B3

# Target: T1, Human TNFR2
# Test: cell-based or functional assay
Activity I (IL8),Binder,Activity II (tox)
0 ng/mL,B4,0 ng/mL
10 ng/mL,B5,20 ng/mL
0 ng/mL,B6,0 ng/mL
0 ng/mL,B7,0 ng/mL
100 ng/mL,B8,
50 ng/mL,B9,
,B10,20 ng/mL
,B11,10 ng/mL
